Biological target: Fc-binding nanodisc F-ND_(P2N2), made with F-MSP2N2
Assay: SEC

immunoglobulin G (IgG) (antibody)
stoichiometry N: 1 molar ratio

— PMC11761773
